Target: synthetic wild-type CRN2 coiled coil peptide (human), Q9ULV4
Assay: SEC-MALS

VQNEAKLDEILKEIKSIKDTICNQDERISKLEQQMAKIAA (modifications not checked) [synthetic wild-type CRN2 coiled coil peptide, Q9ULV4 442-472]
stoichiometry N: 3
